Assay [1] deals with T1, biotinylated Bcr-Abl PH domain (Avi-tag) (UniProt P11274 704-893, biotin on the Avi-tag).
T1 construct: Bcr part of Bcr-Abl p210, Pleckstrin-homology domain, residues 704-893; Cloned in pHBT1; the limits are those stated for the PH domain construct; also called biotinylated PH; source: E. coli BL21(DE3), co-expressed with BirA and 50 uM biotin, purified; not shown: Avi-tag, N-terminal, kept
T1 sequence (looked up): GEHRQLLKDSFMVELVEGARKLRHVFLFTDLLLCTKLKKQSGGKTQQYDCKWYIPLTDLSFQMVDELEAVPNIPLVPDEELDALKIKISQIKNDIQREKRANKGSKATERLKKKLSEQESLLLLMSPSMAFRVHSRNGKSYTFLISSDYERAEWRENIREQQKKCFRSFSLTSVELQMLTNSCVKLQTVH
Briefly: flow cytometry on cells; monobody displayed on yeast surface; biotinylated target 10 nM to 1 uM in TBS with 0.1% BSA, 30 min at RT; streptavidin-DyLight650; 1:1 binding model; apparent Kd. Particulars: one partner purified.

For assay [2], the target named is T2, biotinylated Bcr-Abl DH-PH tandem domain (Avi-tag) (UniProt P11274 487-893, biotin on the Avi-tag).
T2 construct: Bcr part of Bcr-Abl p210, DH-PH tandem domain, residues 487-893; Cloned in pHBT1, which for the monobodies is said to give an N-terminal His- and Avi-tag followed by a TEV site; also called biotinylated DH-PH domain; source: E. coli BL21(DE3), co-expressed with BirA and 50 uM biotin, purified; not shown: Avi-tag, N-terminal, kept
T2 sequence (looked up): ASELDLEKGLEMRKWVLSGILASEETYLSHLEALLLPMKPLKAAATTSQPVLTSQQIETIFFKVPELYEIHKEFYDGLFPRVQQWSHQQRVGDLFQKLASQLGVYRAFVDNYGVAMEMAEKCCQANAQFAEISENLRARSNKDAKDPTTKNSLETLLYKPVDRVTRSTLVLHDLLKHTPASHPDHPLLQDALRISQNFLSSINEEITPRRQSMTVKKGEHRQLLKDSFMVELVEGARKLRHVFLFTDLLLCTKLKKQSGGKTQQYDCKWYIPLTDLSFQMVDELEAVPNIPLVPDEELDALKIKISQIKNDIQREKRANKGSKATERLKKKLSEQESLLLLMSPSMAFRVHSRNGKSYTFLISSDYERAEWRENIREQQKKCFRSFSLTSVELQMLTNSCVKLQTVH
The description is as above. Particulars: one partner purified.

The target in assay [3] is T3, Bcr-Abl DH domain (residues 487-702).
T3 construct: Bcr part of Bcr-Abl p210, Dbl-homology domain, residues 487-702; 15N-labelled for the NMR experiments; also called Bcr DH; source: E. coli Rosetta(DE3), purified (Ni-NTA, TEV cleavage, reverse Ni, SEC); not shown: His-tag, N-terminal, cleaved
T3 chain: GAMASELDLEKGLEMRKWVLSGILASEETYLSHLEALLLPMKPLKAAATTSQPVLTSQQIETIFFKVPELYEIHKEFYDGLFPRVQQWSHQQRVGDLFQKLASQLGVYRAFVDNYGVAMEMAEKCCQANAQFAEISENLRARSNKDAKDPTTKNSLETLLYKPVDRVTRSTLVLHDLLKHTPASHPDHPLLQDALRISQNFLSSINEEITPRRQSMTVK
Briefly: ITC; monobody (200 uM stock) titrated to the DH domain (20 uM) at 25 °C; 25 mM HEPES pH 7.5, 150 mM NaCl, 0.5 mM TCEP; 1:1 binding model. Particulars: both partners purified.

B1: monobody Mb(Bcr-PH_2), displayed on yeast surface (designed binder)
chain: VSSVPTKLEVVAATPTSLLISWDAPAVTVVFYVITYGETGGNSPVQEFTVPGSKSTATISGLKPGVDYTITVYAEYYGYTSSPISINYRT
notes: monobody on the fibronectin type III scaffold, side-and-loop library
Regarding B1, the Kd in assay [1] amounted to 46 ± 10 nM.

B2: monobody Mb(Bcr-PH_3), displayed on yeast surface (designed binder)
chain: VSSVPTKLEVVAATPTSLLISWDAPAVTVVFYVITYGETGGNSPVQEFTVPGSKSTATISGLKPGVDYTITVYAEYYGYSGWQSPISINYRT
notes: as for B1
On to B2, for which the Kd in assay [1] is 63 ± 12 nM.

B3: monobody Mb(Bcr-DH_3), displayed on yeast surface (designed binder)
chain: VSSVPTKLEVVAATPTSLLISWDAPAVTVDLYVITYGETGGNSPVQAFEVPGSKSTATISGLKPGVDYTITVYAGSETYRGYWSPISINYRT
notes: as for B1
On to B3, for which the Kd in assay [2] turned out to be 18 ± 5 nM.

B4: monobody Mb(Bcr-DH_3), purified (designed binder)
chain: B3 chain
notes: monobody on the fibronectin type III scaffold, side-and-loop library; also called Mb(DH_3); source: E. coli BL21(DE3), purified; not shown: His-tag, N-terminal, cleaved; Avi-tag, N-terminal, cleaved
For B4, in assay [3], the Kd was 2.1 nM and the “stoichiometry N” value amounted to 0.78.

B5: monobody Mb(Bcr-DH_4), displayed on yeast surface (designed binder)
chain: VSSVPTKLEVVAATPTSLLISWDAPAVTVDLYVITYGETGGNSPVQEFEVPGSKSTATISGLKPGVDYTITVYAGSYAYEYYWGPSPISINYRT
notes: as for B1
As to B5, in assay [2], the Kd stood at 20 ± 7 nM.

B6: monobody Mb(Bcr-DH_4), purified (designed binder)
chain: B5 chain
notes: monobody on the fibronectin type III scaffold, side-and-loop library; also called Mb(DH_4); S10; source: E. coli BL21(DE3), purified; not shown: His-tag, N-terminal, cleaved; Avi-tag, N-terminal, cleaved
As for B6, in assay [3], the Kd was 14.5 ± 8.6 nM and the “stoichiometry N” value came out at 0.94.

For the origin of these results see PMC5727386, “Structural and functional dissection of the DH and PH domains of oncogenic Bcr-Abl tyrosine kinase” (Nature Communications, 2017).
